# Data from patent US20240174753A1 (ANWITA BIOSCIENCES, published 2024).
# Where a chain is given by its changes, count along the chain named. Names and notes keep the numbering of the source.
# B1: hIL-2 Mutein (K32E, F42C, V69C, C125S) (ligand)
# chain: APTSSSTKKTQLQLEHLLLDLQMILNGINNYENPKLTRMLTCKFYMPKKATELKHLQCLEEELKPLEECLNLAQSKNFHLRPRDLISNINVIVLELKGSETTFMCEYADETATIVEFLNRWITFSQSIISTLT
# notes: The description says F42C and V69C form a disulfide bond; Column headed 'Fusion Protein'; no fusion partner is stated for the assay
# B2: hIL-2 Mutein (R38N, L40T, C125S) (ligand)
# chain: B1 chain with E32K, R38N, L40T, C42F, C69V
# notes: Column headed 'Fusion Protein'; no fusion partner is stated for the assay
# B3: hIL-2 Mutein (K32E, R38E, F42K, C125S) (ligand)
# chain: B1 chain with R38E, C42K, C69V
# notes: as for B2
# B4: IL-2-IL-15 Chimera 1 (C125S) (ligand)
# chain: APTSSSTKKTQLQLEHLLLDLQMILNGIQSMEIDATTFKFYMPKKATELKHLQCLEEELKPLEEVLNLAQSKNFHLRPRDLISNINVIVLELKGSETTFMCEYADETATIVEFLNRWITFSQSIISTLT
# notes: as for B2
# B5: IL-2-IL-15 Chimera 31 (I92G, C125S) (ligand)
# chain: B4 chain with I88G
# notes: No fusion partner is stated for the assay; also called IL-2-IL-15 Chimera 29 (I92G, C125S)
# B6: IL-2-IL-15 Chimera 29 (I92A, C125S) (ligand)
# chain: B4 chain with I88A
# notes: as for B2
# B7: IL-2-IL-15 Chimera 21 (D20A, C125S) (ligand)
# chain: B4 chain with D20A
# notes: as for B2
# B8: IL-2-IL-15 Chimera 19 (D20T, C125S) (ligand)
# chain: B4 chain with D20T
# notes: as for B2
# B9: IL-2-IL-15 Chimera 5 (E15K, C125S) (ligand)
# chain: B4 chain with E15K
# notes: as for B2
# B10: IL-2-IL-15 Chimera 15 (H16I, C125S) (ligand)
# chain: B4 chain with H16I
# notes: as for B2
# B11: IL-2-IL-15 Chimera 23 (D20E, C125S) (ligand)
# chain: B4 chain with D20E
# notes: as for B2
# B12: IL-2-IL-15 Chimera 25 (D20K, C125S) (ligand)
# chain: B4 chain with D20K
# notes: as for B2
# B13: IL-2-IL-15 Chimera 35 (I92E, C125S) (ligand)
# chain: B4 chain with I88E
# notes: No fusion partner is stated for the assay; also called IL-2-IL-15 Chimera 29 (I92E, C125S)
# B14: IL-2-IL-15 Chimera 11 (H16E, C125S) (ligand)
# chain: B4 chain with H16E
# notes: as for B2
# B15: IL-2-IL-15 Chimera 27 (N88A, C125S) (ligand)
# chain: B4 chain with N84A
# notes: as for B2
# B16: IL-2-IL-15 Chimera 17 (H16V, C125S) (ligand)
# chain: B4 chain with H16V
# notes: as for B2
# B17: IL-2-IL-15 Chimera 33 (I92D, C125S) (ligand)
# chain: B4 chain with I88D
# notes: No fusion partner is stated for the assay; also called IL-2-IL-15 Chimera 29 (I92D, C125S)
# Biological target: T1, CD122-Fc fusion protein (UniProt P14784 27-240, limits assumed)
# T1 construct: also called IL-2Rβ; not shown: Fc part
# T1 sequence (looked up): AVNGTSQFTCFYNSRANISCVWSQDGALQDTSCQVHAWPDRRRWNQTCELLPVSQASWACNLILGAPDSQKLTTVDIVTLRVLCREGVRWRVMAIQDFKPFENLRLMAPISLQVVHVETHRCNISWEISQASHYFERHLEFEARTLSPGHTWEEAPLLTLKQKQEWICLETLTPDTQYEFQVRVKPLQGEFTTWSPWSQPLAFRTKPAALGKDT
# Experiment: BLI (Octet RED96); CD122-Fc on AHC biosensor, IL-2 mutein at 400 nM
# Parameters: unit not given here
# Text: (§1) Briefly, an CD25- or CD122-Fc fusion protein was loaded onto an anti-human IgG Fc capture (AHC) biosensor.
row,Binder,Binding Response
1,B1,> 0.5
2,B2,> 0.5
3,B3,> 0.5
4,B4,> 0.5
5,B5,< 0.2
6,B6,< 0.1
7,B7,< 0.1
8,B8,< 0.1
9,B9,> 0.5
10,B10,< 0.1
11,B11,< 0.1
12,B12,< 0.1
13,B13,< 0.1
14,B14,< 0.2
15,B15,< 0.1
16,B16,< 0.1
17,B17,< 0.1

# Biological target: T2, CD25-Fc fusion protein (UniProt P01589 22-213, limits assumed)
# T2 construct: also called IL-2Rα; not shown: Fc part
# T2 sequence (looked up): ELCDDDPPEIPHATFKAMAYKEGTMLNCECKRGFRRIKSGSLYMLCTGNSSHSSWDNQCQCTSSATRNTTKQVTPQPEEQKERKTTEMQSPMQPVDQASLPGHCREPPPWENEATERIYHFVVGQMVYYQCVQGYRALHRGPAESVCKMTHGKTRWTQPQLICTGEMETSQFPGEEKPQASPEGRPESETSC
# Experiment: BLI (Octet RED96); CD25-Fc on AHC biosensor, IL-2 mutein at 400 nM
# Parameters: unit not given here
# Text: as §1
row,Binder,Binding Response
1,B1,< 0.05
2,B2,< 0.05
3,B3,< 0.05
4,B4,< 0.05
5,B5,< 0.05
6,B6,< 0.05
7,B7,< 0.05
8,B8,< 0.05
9,B9,< 0.05
10,B10,< 0.05
11,B11,< 0.05
12,B12,< 0.05
13,B13,< 0.05
14,B14,< 0.05
15,B15,< 0.05
16,B16,< 0.05
17,B17,< 0.05
